Laboratory results: article PMC9757750 (Science Advances, 2022)

Key:
[1] = biological target: 6×His-LegA15, full-length (Legionella pneumophila Philadelphia, UniProt Q5ZSR1 1-471); test: pull-down; details: both partners purified
[2] = biological target: Flag-LegA15 used in the GST pulldown of Fig. 2E (Legionella pneumophila Philadelphia, UniProt Q5ZSR1); test: pull-down; details: both partners purified

B1: GST-p115 (1 to 651), ND (domain or fragment, human, UniProt O60763 1-651, looked up)
chain: MNFLRGVMGGQSAGPQHTEAETIQKLCDRVASSTLLDDRRNAVRALKSLSKKYRLEVGIQAMEHLIHVLQTDRSDSEIIGYALDTLYNIISNEEEEEVEENSTRQSEDLGSQFTEIFIKQQENVTLLLSLLEEFDFHVRWPGVKLLTSLLKQLGPQVQQIILVSPMGVSRLMDLLADSREVIRNDGVLLLQALTRSNGAIQKIVAFENAFERLLDIISEEGNSDGGIVVEDCLILLQNLLKNNNSNQNFFKEGSYIQRMKPWFEVGDENSGWSAQKVTNLHLMLQLVRVLVSPTNPPGATSSCQKAMFQCGLLQQLCTILMATGVPADILTETINTVSEVIRGCQVNQDYFASVNAPSNPPRPAIVVLLMSMVNERQPFVLRCAVLYCFQCFLYKNQKGQGEIVSTLLPSTIDATGNSVSAGQLLCGGLFSTDSLSNWCAAVALAHALQENATQKEQLLRVQLATSIGNPPVSLLQQCTNILSQGSKIQTRVGLLMLLCTWLSNCPIAVTHFLHNSANVPFLTGQIAENLGEEEQLVQGLCALLLGISIYFNDNSLESYMKEKLKQLIEKRIGKENFIEKLGFISKHELYSRASQKPQPNFPSPEYMIFDHEFTKLVKELEGVITKAIYKSSEEDKKEEEVKKTLEQHDNI
notes: also called N-terminal ARM domain; globular head
B1: binds [1]; binds [2].
